Measured values taken from the supplement of paper PMC12667976.

B1: library; numbered along this chain (parent)
chain: MATDAALRRLLRLHRTEIAVAVDSAFPLLHALADHDVVPEDKFQETLHLKEKEGCPQAFHALLSWLLTQDSTAILDFWRVLFKDYNLERYGRLQPILDSFPKDVDLSQPRKGRKPPAVPKALVPPPRLPTKRKASEEARAAAPAALTPRGTASPGSQLKAKPPKKPESSAEQQRLPLGNGIQTMSASVQRAVAMSSGDVPGARGAVEGILIQQVFESGGSKKCIQVGGEFYTPSKFEDSGSGKNKARSSSGPKPLVRAKGAQGAAPGGGEARLGQQGSVPAPLALPSDPQLHQKNEDECAVCRDGGELICCDGCPRAFHLACLSPPLREIPSGTWRCSSCLQATVQEVQPRAEEPRPQEPPVETPLPPGLRSAGEEVRGPPGEPLAGMDTTLVYKHLPAPPSAAPLPGLDSSALHPLLCVGPEGQQNLAPGARCGVCGDGTDVLRCTHCAAAFHWRCHFPAGTSRPGTGLRCRSCSGDVTPAPVEGVLAPSPARLAPGPAKDDTASHEPALHRDDLESLLSEHTFDGILQWAIQSMARPAAPFPS

Variants of: B1
Assay: AIRE transcriptional activation functional score (insulin promoter-GFP; nonsense median 0, synonymous median 1) (normalised score); higher = higher AIRE activity (more reporter activation)
Conditions: with insulin promoter-GFP reporter in HEK293
Procedure: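 Deep mutational scan of full-length human AIRE (codon-optimized cDNA, DT-POPCode NNN libraries over three regions) integrated at a Bxb1 landing pad in HEK293 cells carrying an insulin core promoter-GFP reporter at a Flp-In site. Cells were sorted for the top 10% GFP about 14 days after transfection. Variant frequency log-ratios (select vs non-select, TileSeq) were rescaled so that the nonsense median is 0 and the synonymous median is 1, then averaged over biological replicates.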

AIRE transcriptional activation functional score of substitutions, site by site:
S249: N 0.548; D 0.114; E -0.0377; M 1.28; V 1.12; R -0.21; F 0.707; G 1.22; W 1.81; C 1.33; A 1.07; T 0.256; I 1.25; Q 0.961; Y 0.973; P 0.451; L 0.67; H 0.402
K235: L 0.897; W 1.15; F 0.827; C 1.5; M 1.33; Q 1.04; T 0.985; N 0.479; V 1.45; H 0.221; S 0.877; A 0.515; R 1.19; Y 1.01; E 0.408; P 1.43; G 1.17; I 0.627
T232: Y 0.775; H 0.729; R 1.18; S 1.15; G 0.941; L 1.1; K 1.16; W 0.451; M 1.22; P 0.894; N 0.834; V 1.07; I 0.928; E 1.05; Q 1.38; F -0.0868
S250: C 1.23; T 0.687; H 0.963; M 1.68; K 0.556; V 1.1; G 0.835; E 0.4; R 0.0524; A 0.792; Q -0.615; I 1.11; P -0.109; D 0.427; L 1.02; F 1.13; N 0.847
R247: Y 0.724; G 0.529; V 1.16; W 0.502; I 0.937; P 0.344; N 0.919; D 0.268; M 1.42; S 0.966; C 1.05; Q 0.669; H -1.26; K 1.2; E 1.52; A 0.732; T 0.898; F 0.902; L 0.895
S239: W 1.37; M 1.69; E 0.783; F 1.06; K -0.0573; Y 1.43; N 1.4; P 1.06; D 0.131; T 1.17; A 1.2; R 1.13; L 1.31; V 1.13; C 1.16; I 0.737; H 1.27; G 1.05
N244: C 0.374; F 1.08; D 1.1; S 1.3; G 0.138; M -0.168; R 0.573; K -0.184; V 0.206; I 1.07; T 1.14; Q 1.19; Y 1.25; L 0.301; A 0.269; E 0.249; H 0.405
F236: V 0.877; N 1.68; K 0.0925; A 1.03; Y 0.564; G 0.726; C 0.925; R 0.401; L 0.651; W 1.44; I 1.01; T -0.222; P 0.266; S 0.712; M -0.434
G242: F 1.23; E 0.0818; K 0.747; I -0.56; C 1.06; P 0.412; W 0.936; T -0.775; Y 1.6; A 1.19; R 0.611; L 1.13; Q 0.988; S 0.694; D 0.951; V 1.04
E237: Y 0.617; M 1.3; G 1.06; V 1.19; A 1.08; L 1.16; R 0.603; F -1.02; W 0.832; I 0.885; S 0.791; K 0.979; H 0.943; T 0.952; C 1.16; P 0.729; D 0.996; Q 1.03
S234: K 0.869; I 0.96; E 0.552; F 1.31; T 0.61; M 1.15; P 1.19; G 1.16; D -0.22; Q 1.22; A 1.24; Y 1.11; V 1.19; C 1.53; R 1.21; L 1.04; W 0.775
K245: Q 0.887; E 0.245; T -0.0733; A 1.33; G 0.76; F 1.67; I 0.196; V 1.32; C 1; D 0.145; W 0.978; R 0.472; L 0.453; N 0.375; S 0.252; M 0.0585; H 1.35; Y 1.21; P 1.07
S248: W 1.01; T 0.975; I 1.16; E 0.474; D 1.25; K 0.517; Q 0.368; L 1.11; A 0.947; M 1.01; R 0.215; G 1.13; P 1.33; V 0.819; C 1.03; F 1.09; N 0.778; Y 1.07
S241: R 0.436; G 0.897; A 0.598; I 1.06; M 1.1; F 1.2; C 1.11; E 1.29; P 1.31; T 1.11; H 0.567; L 1.17; V 0.868; Q 0.992; K 0.301; D 1.13; Y 1.12; N 1.13; W 0.868
G240: H 0.0803; W 1.09; P 0.78; Q 0.0726; V 0.921; F 0.96; R 1.01; L 1.2; E 0.406; C 0.742; I 0.539; T 1.47; K 1.07; A 0.723; S 1.1; N 1.96; Y -0.451; M 1.08
K243: H 1.02; S 1; M 1.31; N 1.06; Y -0.257; Q 0.804; P 0.97; W 1.3; T 1.08; I 1.02; R 1.1; L 1.47; A 0.56; E 0.511; V 0.856; F 0.81; C 0.711; D 0.0348; G 1.03
P233: L 0.385; F -0.0788; G 1.15; I 0.184; Y 0.576; D 0.675; A 1.09; N 1.51; V 0.512; S 1.01; K 0.232; Q 0.416; H 1.29; T 1.07; C 1.17; R 1.18
A246: Q -0.0407; D 0.858; K 0.609; L 1; N 0.102; S 0.759; T 0.841; I 0.408; P 1.05; H 1.42; E 0.55; G 0.693; W 1.47; F 1.39; V 1.12; Y 1.43; R 0.482; C 1.22
D238: N 0.588; F 1.04; V 1.23; R 0.333; G 1; A 1.15; H 1.34; I 1.27; S 0.788; M 0.876; Y 1.12; Q 0.948; P 1.5; T 0.755; C 1.24; E 0.685; K 0.355; L 1.13
